From paper PMC4022651, “Substitutional Analysis of the C-Terminal Domain of AbrB Revealed Its Essential Role in DNA-Binding Activity”
Values belong to the molecule of their own block, whether it stands above or below them.

Assays:
AbrB Q91A (B. subtilis) [1] = assay: SEC; analytical gel filtration (FPLC) on Superdex 75 5/150 GL; running buffer condition I: 50 mM HEPES pH 7.5, 300 mM NaCl, 2 mM β-mercaptoethanol, no glycerol; 100 µl protein applied; 0.2 ml/min; polymeric forms as % of the areas under the curve of all protein peaks
AbrB Q91A (B. subtilis) [2] = assay: SEC; analytical gel filtration (FPLC) on Superdex 75 5/150 GL; running buffer condition II: 50 mM HEPES pH 7.5, 300 mM NaCl, 2 mM β-mercaptoethanol with 10% glycerol; 60 µl (100 µg) protein applied; 0.2 ml/min; polymeric forms as % of the areas under the curve of all protein peaks
[3] = test system: AbrB R15A (Bacillus subtilis 168); assay: EMSA; details: apparent KD', from plot against AbrB tetramer; 20 mM Tris-HCl pH 8, 100 mM KCl, 5 mM MgCl2, 1 mM DTT, 10% glycerol, 0.1 mg/ml poly(dI-dC), room temperature, 20 min; 1.14 nM phyC or 0.95 nM sinIR DNA
AbrB wt [4] = biological target: T1, AbrB wt (Bacillus subtilis 168, UniProt P08874 3-96); assay: EMSA; details: apparent KD', from plot against AbrB tetramer; 20 mM Tris-HCl pH 8, 100 mM KCl, 5 mM MgCl2, 1 mM DTT, 10% glycerol, 0.1 mg/ml poly(dI-dC), room temperature, 20 min; 1.14 nM phyC or 0.95 nM sinIR DNA
T1 sequence: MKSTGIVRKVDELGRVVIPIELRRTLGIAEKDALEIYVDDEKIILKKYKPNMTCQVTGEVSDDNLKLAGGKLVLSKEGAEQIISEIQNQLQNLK

AbrB wt [5] = biological target: T1, AbrB wt; assay: EMSA; shift above 0.1 uM, no super shift; 20 mM Tris-HCl pH 8, 100 mM KCl, 5 mM MgCl2, 1 mM DTT, 10% glycerol, 0.1 mg/ml poly(dI-dC), room temperature, 20 min; 1.14 nM phyC or 0.95 nM sinIR DNA; details: protein: recombinant; tags: His6; chain copies: 4; label: 5'-32P; blunt

% of the protein (AUC) in the form with n 4.7 (AbrB Q91A (B. subtilis) [1]): 85%
% of the protein (AUC) in the form with n 8.2 (AbrB Q91A (B. subtilis) [1]): 15%
% of the protein (AUC) in the form with n 4.1 (AbrB Q91A (B. subtilis) [2]): > 95%
stoichiometry N (AbrB Q91A (B. subtilis) [2]): 4.1
Molecule: AbrB Q91A (natural protein)

Molecule: phyC promoter 440 bp
Kd [3]: 3400 nM
Kd (AbrB wt [4]): 660 nM

B1: sinIR P1 AbrB site 36 bp (dsDNA)
DNA 1: GTGATTTAATGGCAAATGACTTCCAGAGACTAATGA
DNA 2: TCATTAGTCTCTGGAAGTCATTTGCCATTAAATCAC
binding result (AbrB wt [5]): binds
